Measured values as given in article doi:10.1101/2020.08.23.263558 (bioRxiv, 2020).

Target: the molecule itself
Assay: cryo-EM structure

B1: full length human Top2α (1-1531) (enzyme)
chain: MEVSPLQPVNENMQVNKIKKNEDAKKRLSVERIYQKKTQLEHILLRPDTYIGSVELVTQQMWVYDEDVGINYREVTFVPGLYKIFDEILVNAADNKQRDPKMSCIRVTIDPENNLISIWNNGKGIPVVEHKVEKMYVPALIFGQLLTSSNYDDDEKKVTGGRNGYGAKLCNIFSTKFTVETASREYKKMFKQTWMDNMGRAGEMELKPFNGEDYTCITFQPDLSKFKMQSLDKDIVALMVRRAYDIAGSTKDVKVFLNGNKLPVKGFRSYVDMYLKDKLDETGNSLKVIHEQVNHRWEVCLTMSEKGFQQISFVNSIATSKGGRHVDYVADQIVTKLVDVVKKKNKGGVAVKAHQVKNHMWIFVNALIENPTFDSQTKENMTLQPKSFGSTCQLSEKFIKAAIGCGIVESILNWVKFKAQVQLNKKCSAVKHNRIKGIPKLDDANDAGGRNSTECTLILTEGDSAKTLAVSGLGVVGRDKYGVFPLRGKILNVREASHKQIMENAEINNIIKIVGLQYKKNYEDEDSLKTLRYGKIMIMTDQDQDGSHIKGLLINFIHHNWPSLLRHRFLEEFITPIVKVSKNKQEMAFYSLPEFEEWKSSTPNHKKWKVKYYKGLGTSTSKEAKEYFADMKRHRIQFKYSGPEDDAAISLAFSKKQIDDRKEWLTNFMEDRRQRKLLGLPEDYLYGQTTTYLTYNDFINKELILFSNSDNERSIPSMVDGLKPGQRKVLFTCFKRNDKREVKVAQLAGSVAEMSSYHHGEMSLMMTIINLAQNFVGSNNLNLLQPIGQFGTRLHGGKDSASPRYIFTMLSSLARLLFPPKDDHTLKFLYDDNQRVEPEWYIPIIPMVLINGAEGIGTGWSCKIPNFDVREIVNNIRRLMDGEEPLPMLPSYKNFKGTIEELAPNQYVISGEVAILNSTTIEISELPVRTWTQTYKEQVLEPMLNGTEKTPPLITDYREYHTDTTVKFVVKMTEEKLAEAERVGLHKVFKLQTSLTCNSMVLFDHVGCLKKYDTVLDILRDFFELRLKYYGLRKEWLLGMLGAESAKLNNQARFILEKIDGKIIIENKPKKELIKVLIQRGYDSDPVKAWKEAQQKVPDEEENEESDNEKETEKSDSVTDSGPTFNYLLDMPLWYLTKEKKDELCRLRNEKEQELDTLKRKSPSDLWKEDLATFIEELEAVEAKEKQDEQVGLPGKGGKAKGKKTQMAEVLPSPRGQRVIPRITIEMKAEAEKKNKKKIKNENTEGSPQEDGVELEGLKQRLEKKQKREPGTKTKKQTTLAFKPIKKGKKRNPWSDSESDRSSDESNFDVPPRETEPRRAATKTKFTMDLDSDEDFSDFDEKTDDEDFVPSDASPPKTKTSPKLSNKELKPQKSVVSDLEADDVKGSVPLSSSPPATHFPDETEITNPVPKKNVTVKKTAAKSQSSTSTTGAKKRAAPKGTKRDPALNSGVSQKPDPAKTKNRRKRKPSTSDDSDSNFEKIVSKAVTSKKSKGESDDFHMDFDSAVAPRAKSVRAKKPIKYLEESDEDDLF
- stoichiometry N: 2
